Data from paper PMC10696396 (2023).

B2: His6-SUMO-HilE (natural protein)
chain: MDAIYLKLDGIEGESRIKGFENQIKLIAYNHNPTKRESGEARGTYIGGLTLTKPVDLATPGLYEHYCNGKTVKEGVLTLCRRDKGAMLPFIIYTLTNVRISRMSNHGDAEGSATETVDLVYSHIRWDIPALASKSKTRRPLHRQALWR
modifications: RED-tris-NTA 2nd Generation dye bound to the His6 tag

Experiments:
Assay in all cases: MST
His6-SUMO-HilE = molecular target: B2
HilD S216I/S218D = molecular target: HilD S216I/S218D
HilD K279M = molecular target: HilD K279M
[1] = molecular target: EYFP-HilD E102A/K264A/R267A

B1: HilD (full-length, unfused) (natural protein)
chain: MENVTFVSNSHQRPAADNLQKLKSLLTNTRQQIKSQTQQVTIKNLYVSSFTLVCFRSGKLTISNNHDTIYCDEPGMLVLKKEQVVNVTLEEVNGHMDFDILEIPTQRLGALYALIPNEQQTKMAVPTEKAQKIFYTPDFPARREVFEHLKTAFSCTKDTSKGCSNCNNKSCIENEELIPYFLLFLLTAFLRLPESYEIILSSAQITLKERVYNIISSSPSRQWKLTDVADHIFMSTSTLKRKLAEEGTSFSDIYLSARMNQAAKLLRIGNHNVNAVALKCGYDSTSYFIQCFKKYFKTTPSTFIKMANH
- Kd (His6-SUMO-HilE): 1890 nM

Binder: B2
- Kd (HilD S216I/S218D): 1160 nM
- Kd (HilD K279M): 2120 nM

B3: HilE (natural protein)
chain: MDAIYLKLDGIEGESRIKGFENQIKLIAYNHNPTKRESGEARGTYIGGLTLTKPVDLATPGLYEHYCNGKTVKEGVLTLCRRDKGAMLPFIIYTLTNVRISRMSNHGDAEGSATETVDLVYSHIRWDIPALASKSKTRRPLHRQALWR
- Kd [1]: 1680 nM
